What was measured:
[1] = target: recombinant purified human IL-12 p70 (human) (UniProt P29459); assay: cell-based or functional assay
[2] = target: recombinant purified human IL-12 p70 (human) (UniProt P29459); assay: SPR (Biacore 3000), mAb captured via goat anti-mouse IgG Fc, human IL-12 p70 in solution
[3] = target: recombinant purified human IL-12 p70 (human) (UniProt P29459); assay: SPR (BIAcore) per Example 1.1.B; antigen not restated, taken as human IL-12 p70
[4] = target: recombinant purified human IL-12 p70 (human) (UniProt P29459); assay: SPR (Biacore) per Example 1.1.B; antigen not restated, taken as human IL-12 p70

recombinant purified human IL-12 p70 (human), sequence (chain, as listed by the source, form in doubt, chain 1 of 2): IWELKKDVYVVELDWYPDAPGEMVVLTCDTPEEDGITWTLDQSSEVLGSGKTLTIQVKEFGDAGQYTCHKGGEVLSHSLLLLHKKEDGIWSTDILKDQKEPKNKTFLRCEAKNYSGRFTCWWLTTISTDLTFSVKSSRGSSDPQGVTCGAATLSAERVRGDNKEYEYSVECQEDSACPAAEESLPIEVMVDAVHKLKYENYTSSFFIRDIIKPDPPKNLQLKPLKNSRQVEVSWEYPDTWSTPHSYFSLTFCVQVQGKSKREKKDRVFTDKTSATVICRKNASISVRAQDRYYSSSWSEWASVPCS
recombinant purified human IL-12 p70 (human), sequence (P29459 23-219, form in doubt, chain 2 of 2): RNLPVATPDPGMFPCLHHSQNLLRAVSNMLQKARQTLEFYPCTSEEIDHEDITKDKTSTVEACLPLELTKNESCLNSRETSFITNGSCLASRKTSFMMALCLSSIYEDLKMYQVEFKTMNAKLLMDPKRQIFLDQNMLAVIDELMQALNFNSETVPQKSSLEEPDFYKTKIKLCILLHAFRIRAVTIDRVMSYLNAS

Binder	Average IC50 (nM) Human IL-12; PHA blast IFN-gamma induction assay [1] [nM]	Kd [2] [pM]	koff [2] [s⁻¹]	kon [2] [M⁻¹ s⁻¹]	Av. IC50(nM) huIL-12; PHA blast IFN-gamma induction assay [1] [nM]	Kd [3] [pM]	koff [3] [s⁻¹]	kon [3] [M⁻¹ s⁻¹]	Kd [4] [pM]	koff [4] [s⁻¹]	kon [4] [M⁻¹ s⁻¹]
1D4 (antibody, V domains shown) VH: QVTLKESGPGILQPSQTLSLTCSFSGFSLRKSVMGVSWIRQPSGKGLEWLAHIYWDDDKYYNPSLKSRLTISKDPSRNQVFLKITSVDTADAATYYCTRRGIRSAMDYWGQGTSVTVSS VL: SVVMTQTPKFLLVSAGDRVTITCKASQSVSNDVAWYQQKPGQSPKLLIYYASNRYTGVPDRFTGSGYGTDFTFIISTVRAEDLAVYFCQQDYNSPWTFGGGTKLEIKR	0.031	120	2.9e-05	250000	–	–	–	–	–	–	–
1H6 (antibody, V domains shown) VH: EVKLVESGGGLVQPGGSRKLSCAASGFTFSDYGMVWVRQAPGKGLEWVAYISSGSSTIHYADTMKGRFTISRDNPKNTLFLQMSSLRSEDTAMYYCARRHYYAMDYWGQGTSVTVSS VL: SFVMTQTPKFLLVSAGDRVTITCKASQSVSNDVAWYQQKPGQSPKLLIYYASNRYTGVPDRFTGTGYGTDFTFTISTVQAEDLAVYFCQQDYTSPFTFGSGTKLEIKR	0.69	250	9.9e-05	430000	–	–	–	–	–	–	–
1D4.4 (antibody, human IgG1, V domains shown) VH: EVTLRESGPALVKPTQTLTLTCTFSGFSLSKSVMGVSWIRQPPGKALEWLAHIYWDDDKYYNPSLKSRLTISKDTSKNQVVLTMTNMDPVDTATYYCARRGIRSAMDYWGQGTTVTVSS VL: SVVMTQTPKFLLVSAGDRVTITCKASQSVSNDVAWYQQKPGQSPKLLIYYASNRYTGVPDRFTGSGYGTDFTFIISTVRAEDLAVYFCQQDYNSPWTFGGGTKLEIKR	–	–	–	–	0.64	74	2.1e-05	280000	–	–	–
1A6 (antibody, V domains shown) VH: QVTLKESGPGILKPSQTLSLTCSFSGFSLSTSGMGVSWIRQPSGKGLEWLAHIWWDGDNYYNPSLKSQLTISKDTSRNQVFLRIATVDTADTATYYCARRTRVNYAMDYWGQGTSVTVSS VL: SVVMTQTPKFLLVSAGDRVTITCKASQSVSNDVAWFQQKPGQSPKLLIYYASNRYTGVPDRFTGSGYGTDFTFTISTVQAEDLAVYFCQQDYNSPWTFGGGTKLEIKR	0.052	230	3.5e-05	150000	–	–	–	–	–	–	–
1A6.3 (antibody, human IgG1, V domains shown) VH: EVTLKESGPVLVKPTETLTLTCTVSGFSLSTSGMGVSWIRQPPGKALEWLAHIWWDGDNYYNPSLKSRLTISKDTSKSQVVLTMTNMDPVDTATYYCARRTRVNYAMDYWGQGTTVTVSS VL: SVVMTQTPKFLLVSAGDRVTITCKASQSVSNDVAWFQQKPGQSPKLLIYYASNRYTGVPDRFTGSGYGTDFTFTISTVQAEDLAVYFCQQDYNSPWTFGGGTKLEIKR	–	–	–	–	0.068	140	2.6e-05	190000	–	–	–
1D8 (antibody, V domains shown) VH: QVQLQQSGAELMKPGASVKISCKATGYTFSSYWIEWVKQRPGHGLEWIGDILPGSGSTNYNEKFKDKATFTADTSFNTAYMQLSSLTSEDSAVYYCATRRFRGLDYWGQGTTLTVSS VL: SIVMTQTPKFLLVSAGDRVTITCKASQSVSNDVAWYQQKSGQSPKLLIYYASNRYTGVPDRFTGSGYGTDFTFTISTVQPEDLAVYFCQQDYTSPFTFGSGTKLEIKR	0.31	44	2.3e-05	510000	–	–	–	–	–	–	–
4B4 (antibody, V domains shown) VH: QVTLKESGPGILKPSQTLSLTCSLSGFSLSTSGMGVSWIRQPSGKGLEWLAHIWWDGDSYSNPSLRSRLTISRDTSRNQVFLRIATVDTADTATYYCARRTRVNYAMDYWGQGTSVTVSS VL: SVVMTQTPKFLLVSAGDRVTMTCKASQSVSNDVAWFQQKPGQSPKLLIYYASNRYTGVPDRFTGSGYGTDFTFTISTVQAEDLAVYFCQQDYNSPWTFGGGTKLEIKR	0.039	100	1.4e-05	130000	–	–	–	–	–	–	–
1D4.5 (antibody, human IgG1, V domains shown) VH: QVTLKESGPGILQPSQTLSLTCSFSGFSLRKSVMGVSWIRQPSGKGLEWLAHIYWDDDKYYNPSLKSRLTISKDPSRNQVFLKITSVDTADAATYYCTRRGIRSAMDYWGQGTSVTVSS VL: DIVMTQSPDSLAVSLGERATINCKASQSVSNDVAWYQQKPGQPPKLLIYYASNRYTGVPDRFSGSGSGTDFTLTISSLQAEDVAVYYCQQDYNSPWTFGGGTKVEIKR	–	–	–	–	0.053	110	3.1e-05	300000	–	–	–
5E8 (antibody, V domains shown) VH: QIQLVQSGPELKKPGETVKISCKASGYSFTDYSMHWVKQAPGKGLKWMDWINTETGEPTYADDFKGRFAFSLETSASTAYLQINNLKNEDTATYFCSRRRYRAFDYWGQGTTLTVSS VL: SIVMTQSPKFLLVSAGDRVTITCKASQSVSNDVAWYQQKLGQSPKLLIYYASNRYTGVPDRFTGSGYGTDFTFTINTVQAEDLAVYFCQQDYTSPYTFGGGTKLEIQR	12	4000	0.0023	570000	–	–	–	–	–	–	–
3G7 (antibody, V domains shown) VH: QVQLQQSGAELMKPGASVKISCKATGYTFNDYWIEWVKQRPGHGLEWIGGFSHGSGSTNYNEKFKGKATFTADSSSNTAYMQLSSLTSEDSAVYYCARRRFRGMDYWGQGTSVTVSS VL: SIVMTQTPKFLLVSAGDRVTITCKASQSVSNDVAWYQQKPGQSPKLLIYYASNRYTGVPDRFTGSGYGTDFTFTITTVQAEDLAVYFCQQDYSSPWSFGGGTKLEIKR	0.15	47	3.8e-05	820000	–	–	–	–	–	–	–
7G3 (antibody, V domains shown) VH: EVQLQQSGAEFVRSGASVKLSCTASGLNIKDYYIHWVKQRPEQVLDWIGWIDPENGYSEYAPRFQDKATMTADTSSNTAYLHLSSLTSEDTAVYYCNPGELARYFDYWGQGTTLTVSS VL: DIVLSQSPATLSVTPGDSVSLSCRASQSISKNLHWYQQKSHESPRLLIKYTSQSISGIPSRFSGSGSGTDFTLSINSVETEDFGMYFCQQSISWPLTFGAGTKLELKR	0.047	270	0.00028	1.1e+06	–	–	–	–	–	–	–
1A6.10 (antibody, V domains shown) VH: EVTLRESGPGLVKPTQTLTLTCTLYGFSLSTSGMGVSWIRQPPGKGLEWLAHIWWDGDNYYNPSLKSQLTISKDTSKNQVVLKLTSVDPVDTATYYCARRTRVNYAMDYWGQGTLVTVSS VL: DIQMTQSPSSLSASVGDRVTITCKASQSVSNDVAWYQQKPGKAPKLLIYYASNRYTGVPDRFSGSGYGTDFTFTISSLQPEDIATYYCQQDYNSPWTFGGGTKVEIKR	–	–	–	–	0.15	–	–	–	24	7.6e-06	320000
1A6.12 (antibody, IgG1, V domains shown) VH: EVTLRESGPGLVKPTQTLTLTCTLYGFSLSTSGMGVSWIRQPPGKGLEWLAHIWWDGDNYYNPSLKSQLTISKDTSKNQVVLKLTSVDPVDTATYYCARRTRVNYAMDYWGQGTLVTVSS VL: DIQMTQSPSSLSASVGDRVTITCKASQSVSNDVAWFQQKPGKAPKLLIYYASNRYTGVPDRFSGSGYGTDFTFTISSLQPEDIATYYCQQDYNSPWTFGGGTKVEIKR	–	–	–	–	0.088	–	–	–	400	0.0003	740000

— US20100047245A1
